The target in test [1] is T1, human bek (bacterially expressed kinase) fibroblast growth factor receptor (human, UniProt P21802 22-821).
T1 construct: whole, on cells; Three-Ig-domain form, 135 kDa glycoprotein on transfected NIH 3T3 cells; Clone Nbek8 was used with aFGF and bFGF, clone NBek13 with kFGF; also called bek8; NBek8
Put plainly: Scatchard analysis of saturation binding, additional experiments. The procedure: (§1) Fibronectin-coated 24 well dishes containing 1×10^5 cells/well were placed on ice, and the wells were rinsed twice with cold binding buffer (DMEM, 1 mg/ml BSA, 5 U/ml heparin, 50 mM Hepes, pH 7.4). […] Nonspecific binding was obtained using the same serial dilutions but in the presence of 100 fold molar excess of non-radioactive aFGF. After incubation, the cells were placed on ice and rinsed twice with ice cold binding buffer minus heparin and then solubilized in 0.3N NaOH 37° C., 15 minutes.
(§2) Equilibrium Binding Analysis of flg and bek Radioloabled with Acidic, Basic and k-fibroblast Growth Factors Acidic and basic FGF were radioiodinated and purified on heparin-Sepharose as described above. The dissociation constants of bek and flg for aFGF and bFGF were established by saturation binding analysis of the overexpressing cell lines with the iodinated ligands. Binding of both aFGF and bFGF to bek and flg was specific and saturable (FIG. 6A, inserts).

Test [2] has as its target T1, human bek (bacterially expressed …). The test is described as follows: saturation binding of [125I]aFGF to bek8 cells with excess unlabelled aFGF or bFGF. The procedure:
(§3) The background counts in the presence of a 100 fold molar excess of either ligand was always less than 10% of the total cpm at each point. The scale on the Scatchard analysis is the same in each panel.
as §1
(§4) Equilibrium Binding Analysis of flg and bek Radioloabled with Acidic, Basic and k-fibroblast Growth Factors Acidic and basic FGF were radioiodinated and purified on heparin-Sepharose as described above. The dissociation constants of bek and flg for aFGF and bFGF were established by saturation binding analysis of the overexpressing cell lines with the iodinated ligands. Binding of both aFGF and bFGF to bek and flg was specific and saturable (FIG. 6A, inserts). […] Scatchard, (*Ann. N.Y. Acad.

In test [3] the target is T2, human flg (fms-like gene) fibroblast growth factor receptor (human, UniProt P11362 22-822).
T2 construct: whole, on cells; Three-Ig-domain form, 150 kDa glycoprotein on transfected NIH 3T3 cells; also called flg26; NFlg26
The test is described as follows: Scatchard analysis of [125I]aFGF saturation binding to flg overexpressing NIH 3T3 cells. The procedure:
The scale on the Scatchard analysis is the same in each panel.
as §1, §2

Test [4] has as its target T2, human flg (fms-like gene) fibroblast …. The test is described as follows: saturation binding of [125I]aFGF to flg26 cells with excess unlabelled aFGF or bFGF. The procedure:
as §3, §1, §4

For test [5], the target named is T1, human bek (bacterially expressed …). The test is described as follows: Scatchard analysis of [125I]aFGF saturation binding to bek overexpressing NIH 3T3 cells. The procedure:
as §3, §1, §4

Test [6] shares this target. Put plainly: Scatchard analysis of [125I]kFGF saturation binding to bek13 cells.
Test [7] has as its target T2, human flg (fms-like gene) fibroblast …. Put plainly: Scatchard analysis of [125I]kFGF saturation binding to flg26 cells.
Test [8] shares this target. The test is described as follows: Scatchard analysis of saturation binding to flg overexpressing cells, kFGF against bFGF. As to the method:
as §1, §2

T1 sequence (P21802 22-821): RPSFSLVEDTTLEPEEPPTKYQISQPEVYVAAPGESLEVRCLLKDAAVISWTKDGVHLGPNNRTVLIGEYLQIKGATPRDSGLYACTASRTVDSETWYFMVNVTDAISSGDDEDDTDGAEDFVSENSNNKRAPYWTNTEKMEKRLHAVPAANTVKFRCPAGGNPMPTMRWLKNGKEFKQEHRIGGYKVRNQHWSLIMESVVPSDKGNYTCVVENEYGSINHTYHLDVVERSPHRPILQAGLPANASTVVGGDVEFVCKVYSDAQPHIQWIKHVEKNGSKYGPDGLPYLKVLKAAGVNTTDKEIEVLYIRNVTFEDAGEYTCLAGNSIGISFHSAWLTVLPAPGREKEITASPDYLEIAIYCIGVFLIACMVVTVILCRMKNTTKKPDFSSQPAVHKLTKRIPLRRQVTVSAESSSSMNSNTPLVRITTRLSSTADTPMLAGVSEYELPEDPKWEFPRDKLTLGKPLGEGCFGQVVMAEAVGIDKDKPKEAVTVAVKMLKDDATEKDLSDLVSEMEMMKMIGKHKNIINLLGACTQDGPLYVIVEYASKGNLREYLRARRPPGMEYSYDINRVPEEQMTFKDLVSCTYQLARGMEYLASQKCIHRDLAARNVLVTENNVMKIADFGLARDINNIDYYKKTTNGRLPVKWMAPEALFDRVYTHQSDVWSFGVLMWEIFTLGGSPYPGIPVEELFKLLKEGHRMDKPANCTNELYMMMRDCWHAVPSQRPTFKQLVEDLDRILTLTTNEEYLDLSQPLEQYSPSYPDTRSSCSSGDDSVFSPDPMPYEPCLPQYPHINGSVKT
T2 sequence (P11362 22-822): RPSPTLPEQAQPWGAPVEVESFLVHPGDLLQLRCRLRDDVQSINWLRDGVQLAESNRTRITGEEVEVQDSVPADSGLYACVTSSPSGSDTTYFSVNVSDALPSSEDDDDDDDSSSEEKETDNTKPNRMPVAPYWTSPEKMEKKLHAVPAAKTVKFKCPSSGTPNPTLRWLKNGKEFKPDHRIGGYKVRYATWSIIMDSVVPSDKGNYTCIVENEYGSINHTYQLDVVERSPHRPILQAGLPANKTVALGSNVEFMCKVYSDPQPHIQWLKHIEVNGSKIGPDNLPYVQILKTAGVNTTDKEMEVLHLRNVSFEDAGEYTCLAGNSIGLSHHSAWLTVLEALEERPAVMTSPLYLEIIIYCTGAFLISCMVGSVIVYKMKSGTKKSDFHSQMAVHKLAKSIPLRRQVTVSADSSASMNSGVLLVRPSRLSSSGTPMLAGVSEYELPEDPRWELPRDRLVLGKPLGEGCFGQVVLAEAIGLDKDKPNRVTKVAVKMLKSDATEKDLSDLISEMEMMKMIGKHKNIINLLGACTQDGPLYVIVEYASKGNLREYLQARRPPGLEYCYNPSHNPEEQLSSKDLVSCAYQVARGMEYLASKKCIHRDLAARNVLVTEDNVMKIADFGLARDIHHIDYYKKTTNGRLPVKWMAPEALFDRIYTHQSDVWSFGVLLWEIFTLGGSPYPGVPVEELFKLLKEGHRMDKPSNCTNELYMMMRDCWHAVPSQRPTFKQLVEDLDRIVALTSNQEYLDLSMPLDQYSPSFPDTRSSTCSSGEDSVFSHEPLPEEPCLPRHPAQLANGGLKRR

B1: bovine derived acidic fibroblast growth factor (ligand, UniProt P03968 16-155, looked up)
chain: FNLPLGNYKKPKLLYCSNGGYFLRILPDGTVDGTKDRSDQHIQLQLCAESIGEVYIKSTETGQFLAMDTDGLLYGSQTPNEECLFLERLEENHYNTYISKKHAEKHWFVGLKKNGRSKLGPRTHFGQKAILFLPLPVSSD
modifications: radioiodinated (125I) by Enzymobeads where used as labelled ligand
notes: Purified from a bovine source; also called aFGF; acidic FGF
In the case of B1, the Kd (as a rule, the concentration at which binding is half-saturated) in test [1] was 0.04 to 0.1 nM; in test [3], 0.024 nM; in test [5], 0.047 nM. Besides, the “background counts with 100 fold molar excess of either ligand, % of total cpm” value in test [2] and in test [4] was less than 10% throughout.

B2: human recombinant kFGF (ligand, UniProt P08620 31-206, looked up)
chain: APTAPNGTLEAELERRWESLVALSLARLPVAAQPKEAAVQSGAGDYLLGIKRLRRLYCNVGIGFHLQALPDGRIGGAHADTRDSLLELSPVERGVVSIFGVASRFFVAMSSKGKLYGSPFFTDECTFKEILLPNNYNAYESYKYPGMFIALSKNGKTKKGNRVSPTMKVTHFLPRL
modifications: radioiodinated (125I) by Enzymobeads
notes: also called hst/kFGF
On to B2, for which the Kd in test [6] is 0.08 nM; in test [7], 0.32 nM. Also, the “fold less avidity than bFGF” value in test [8] worked out at 4 fold.

The record behind these values is patent US6344546 (RHONE POULENC RORER, dated 2002).
